This note sets out measurements from paper PMC5747488.

In experiment [1] the target is ORFV119^Flag expressed by revertant virus OV-IA82-RV119^Flag (orf virus (ORFV) strain OV-IA82). The experiment in a line: co-IP; OFTu cells infected with Flag-tagged recombinant ORFV (MOI 10), harvested 12 h p.i.; reciprocal IP of total protein extracts (anti-Flag or antibody against the cellular protein), high stringency buffer with 300 mM NaCl, overnight at 4°C, protein G agarose; Western blot. Background: In western blotting, separated proteins are transferred to a membrane and probed.

Experiment [2] has as its target retinoblastoma protein (pRb), endogenous in human cells (human (endogenous in HEK 293T, HeLa)) (UniProt P06400). The experiment in a line: co-IP; HeLa cells transfected with pORFV119^Flag, harvested 12 h post transfection; reciprocal IP (anti-Flag or anti-pRb), high stringency buffer with 300 mM NaCl; Western blot.
For experiment [3] the target is unchanged. Put plainly: co-IP; HEK 293T cells transfected with pORFV119^Flag, pORFV119^LxGxE-Flag or pORFV113^Flag, harvested 12 h post transfection; reciprocal IP of total protein extracts (anti-Flag, anti-pRb or anti-TRAF2), high stringency buffer with 300 mM NaCl, overnight at 4°C, protein G agarose; Western blot.
Experiment [4] addresses retinoblastoma protein (pRb), endogenous in ovine OFTu cells (ovine (endogenous in OFTu)). The experiment in a line: co-IP; OFTu cells infected with Flag-tagged recombinant ORFV (MOI 10), harvested 12 h p.i.; reciprocal IP of total protein extracts (anti-Flag or antibody against the cellular protein), high stringency buffer with 300 mM NaCl, overnight at 4°C, protein G agarose; Western blot.

Experiment [5] has the same target.
In experiment [6] the target is ORFV119^Flag (ORFV119-3xFlag fusion protein expressed from plasmid pORFV119^Flag) (orf virus (ORFV) strain OV-IA82). The experiment in a line: co-IP; HeLa cells transfected with pORFV119^Flag, harvested 12 h post transfection; reciprocal IP (anti-Flag or anti-pRb), high stringency buffer with 300 mM NaCl; Western blot.
For experiment [7] the target is unchanged. The experiment in a line: co-IP; HEK 293T cells transfected with pORFV119^Flag, pORFV119^LxGxE-Flag or pORFV113^Flag, harvested 12 h post transfection; reciprocal IP of total protein extracts (anti-Flag, anti-pRb or anti-TRAF2), high stringency buffer with 300 mM NaCl, overnight at 4°C, protein G agarose; Western blot.

Turning to “retinoblastoma protein (pRb), endogenous in ovine OFTu cells (natural protein)”, the percentage co-immunoprecipitated in experiment [1] turned out to be 8.7%.

As to “ORFV119^Flag (ORFV119-3xFlag fusion protein expressed from plasmid pORFV119^Flag) (natural protein)”, the percentage co-immunoprecipitated in experiment [2] amounted to 38.7%; in experiment [3] it was 28.4%.

Regarding “ORFV119^Flag expressed by revertant virus OV-IA82-RV119^Flag (natural protein)”, the percentage co-immunoprecipitated in experiment [4] came to 18.5%.

In experiment [5], “ORFV119^LxGxE-Flag expressed by revertant virus OV-IA82-RV119^LxGxE-Flag (natural protein)” had a fold increase of phosphorylated IKKα/β (Ser176/180) in OFTu cells infected with OV-IA82-RV119^LxGxE-Flag relative to OV-IA82, Western blot densitometry, 30 min and 1 h p.i. of 27.4 fold; a fold increase of phosphorylated IκBα (Ser32/36) in OFTu cells infected with OV-IA82-RV119^LxGxE-Flag relative to OV-IA82, Western blot densitometry, 30 min and 1 h p.i. of 21.2 fold; a fold increase of phosphorylated NF-κB-p65 (Ser536) in OFTu cells infected with OV-IA82-RV119^LxGxE-Flag relative to OV-IA82, Western blot densitometry, 30 min and 1 h p.i. of 13.2 fold.

B1: retinoblastoma protein (pRb), endogenous in human cells (natural protein)
chain: MPPKTPRKTAATAAAAAAEPPAPPPPPPPEEDPEQDSGPEDLPLVRLEFEETEEPDFTALCQKLKIPDHVRERAWLTWEKVSSVDGVLGGYIQKKKELWGICIFIAAVDLDEMSFTFTELQKNIEISVHKFFNLLKEIDTSTKVDNAMSRLLKKYDVLFALFSKLERTCELIYLTQPSSSISTEINSALVLKVSWITFLLAKGEVLQMEDDLVISFQLMLCVLDYFIKLSPPMLLKEPYKTAVIPINGSPRTPRRGQNRSARIAKQLENDTRIIEVLCKEHECNIDEVKNVYFKNFIPFMNSLGLVTSNGLPEVENLSKRYEEIYLKNKDLDARLFLDHDKTLQTDSIDSFETQRTPRKSNLDEEVNVIPPHTPVRTVMNTIQQLMMILNSASDQPSENLISYFNNCTVNPKESILKRVKDIGYIFKEKFAKAVGQGCVEIGSQRYKLGVRLYYRVMESMLKSEEERLSIQNFSKLLNDNIFHMSLLACALEVVMATYSRSTSQNLDSGTDLSFPWILNVLNLKAFDFYKVIESFIKAEGNLTREMIKHLERCEHRIMESLAWLSDSPLFDLIKQSKDREGPTDHLESACPLNLPLQNNHTAADMYLSPVRSPKKKGSTTRVNSTANAETQATSAFQTQKPLKSTSLSLFYKKVYRLAYLRLNTLCERLLSEHPELEHIIWTLFQHTLQNEYELMRDRHLDQIMMCSMYGICKVKNIDLKFKIIVTAYKDLPHAVQETFKRVLIKEEEYDSIIVFYNSVFMQRLKTNILQYASTRPPTLSPIPHIPRSPYKFPSSPLRIPGGNIYISPLKSPYKISEGLPTPTKMTPRSRILVSIGESFGTSEKFQKINQMVCNSDRVLKRSAEGSNPPKPLKKLRFDIEGSDEADGSKHLPGESKFQQKLAEMTSTRTRMQKQKMNDSMDTSNKEEK
Take B1: the percentage co-immunoprecipitated in experiment [6] was 21.5%; in experiment [7], 16.7%.
